Values after ≈ are worked out from the molar mass of the structure shown. Read-outs that look alike come from different tables or passages of the source. Square brackets hold non-standard residues; d marks the D form. Peptide text beside a SMILES is read from it. Orn(N5-OH,N5-Ac) = CC(=O)N(O)CCC[C@H](N)C(=O)O A value given as a limit tells only on which side of the number the result lay.

Data set [1] relates to A. fumigatus (ATCC 46645). It counts as cell-based, Aspergillus fumigatus. Particulars: AMM. The method, then:
(§1) Susceptibility tests were performed according to CLSI guidelines with slight modifications. In brief, 96-well plates (Greiner Bio-One GmbH) were prepared with 100 μL of 2 × AMM (Aspergillus minimal medium) or 0.2 × Potato Dextrose Broth (PDB) containing 3 × 10^4 spores of A. fumigatus (ATCC 46645) per well. An amount of 100μL antifungal, dissolved in water, was added to get a final concentration of 1 × AMM/0.1 × PDB medium and antifungal concentration ranging from 0.031–16 μg/mL.

Data set [2] concerns A. fumigatus. Also on record: method as in PMID 26956772. Particulars: 24 h, 37 °C, 0.1 × Vogel's medium; cited from earlier work.
Data set [3] deals with A. fumigatus (ATCC 46645). It counts as cell-based, Aspergillus fumigatus. The procedure:
as §1

The test system of data set [4] is A. fumigatus. Also on record: method as in PMID 31405865. As to conditions: RPMI medium, 48 h; cited from earlier work.
Data set [5] relates to A. fumigatus. The experiment in a line: Uptake assay of 68Ga-labelled conjugates in A. fumigatus. The class given is cell-based, Aspergillus fumigatus. Particulars: iron-depleted AMM, 45 min, 37 °C. The method, then: Assays were performed as previously described. Briefly, uptake and competition assays were performed with A. fumigatus in iron-depleted and iron-replete Aspergillus minimal media (AMM), using a 96-well MultiScreen Filter Plates HTS (1 μm glass fiber filter, Merck Millipore, Darmstadt, Germany). Compounds were incubated for 45 min at 37 °C and filters measured in a gamma counter. Competition assays were performed in the same way except for pre-incubation with the iron-containing antifungal conjugates for 15 min, resulting in a competition at the MirB transporter to show specific binding to MirB.

A further data set is described as follows: in vivo. More on the design: species or system BALB/c mice. As to conditions: mouse, iv; for tissue uptake: female, BALB/c, 0.4 nmol, total radioactivity, Kidney uptake. The method, then:
Stability test and biodistribution were conducted in 4–6 weeks-old female BALB/c mice (in-house breed, ZVTA Innsbruck). ^68Ga-labelled conjugates, dissolved in PBS (Ph. Eur. pH 7.4) and pH adjusted to pH 6.5 with sodium acetate, were injected via lateral tail vein using approximately 0.4 nmol of compound and a volume of 150 µL. For biodistribution, the same procedure was applied except for different time points of 45 and 90 min. Hereafter the animals were euthanized by cervical dislocation and the organs (blood, spleen, pancreas, stomach, liver, kidneys, heart, lung, muscle, femur) were removed and weighed. The activity of the samples was measured in a gamma counter and the results were calculated as a percentage of injected dose per gram tissue (%ID/g).

Data set [6] is classed as physicochemical. Particulars: pH 7.4. The procedure:
Aliquots of 50 µL of ^68Ga-labelled conjugate (~5 µM) were added to 450 µL of phosphate-buffered saline pH 7.4 (PBS) and 500 µL of Octanol into a 1.5 mL Eppendorf tube. The mixture was vigorously shaken for 20 min at 1400 rpm in a standard vortex (MS 3, IKA, Staufen, Germany) and hereafter, 200 µL of each phase removed and measured in a gamma counter (2480 automatic gamma counter Wizard2 3’’, Perkin Elmer, Waltham, MA, USA) LogD was calculated as the ratio of octanol/water phase using Excel. (n = 3, six technical replicates)

[7] abbreviates: Biodistribution Intestine 45 min.
Setting [8] is: Biodistribution Intestine 90 min.
[9] abbreviates: Biodistribution Pancreas 45 min.
Where [10] appears, read: Biodistribution Pancreas 90 min.

For orientation: IC50 means the point on the concentration scale where inhibition reaches its midpoint. Regarding `N=C(N)NCCC[C@@H](N)C(=O)N[C@H](CCCCN)C(=O)N[C@H](CCCCN)C(=O)N[C@H](Cc1c[nH]c2ccccc12)C(=O)N[C@H](Cc1ccccc1)C(=O)N[C@H](Cc1c[nH]c2ccccc12)C(N)=O` [H2N-D-PAF26-NH2] (H-[dR][dK][dK][dW][dF][dW]-NH2), the “Antifungal activity (in words)” value in data set [1] (0.031–16 µg/mL tested) is reported as “no inhibition could be observed”. For the same molecule, the “MIC 24 h” value in data set [1] (37 °C, 24 h) is reported as over 16 µg/mL; in data set [3] (0.1 × PDB, 37 °C, 24 h), 8 µg/mL (≈ 8.43 µM). Also, the “MIC 48 h” value in data set [1] (37 °C, 48 h) is listed as over 16 µg/mL; in data set [3] (0.1 × PDB, 37 °C, 48 h) it was 8 µg/mL; in data set [3] (ATCC 46645, 48 h) it was 8.4 µM. In addition, the IC50 in the data set on A. fumigatus [2] was 8 µM. Also, the “MIC / growth inhibition” value in data set [3] (0.1 × PDB, incubation time not given) is listed as 8 µg/mL (≈ 8.43 µM).

One may read the MIC as the smallest concentration in the dilution series that meets the test's criterion for growth inhibition. Turning to `CC(=O)N([O-])CCC[C@@H]1NC(=O)[C@H](CCCN([O-])C(C)=O)NC(=O)[C@H](CCCN([O-])C(C)=O)NC(=O)[C@@H](Cc2ccccc2)NC(=O)[C@H](CC(C)C)NC(=O)[C@H](CC(N)=O)NC1=O.[Al+3]` [VL-2397] (cyclo(L[dF][Orn(N5-OH,N5-Ac)][Orn(N5-OH,N5-Ac)][Orn(N5-OH,N5-Ac)]N)), the MIC in the data set with A. fumigatus [4] is 1 µg/mL.

Broadly, the tissue uptake is the percentage of the injected dose found per gram of tissue. The term logD denotes lipophilicity at a set pH, counting ionised and neutral species. A higher logD goes with a more lipophilic compound. With `CC(=O)N[C@@H]1CCCN(O)C(=O)/C=C(/C)CCOC(=O)[C@H](NC(=O)CCC(=O)N[C@H](CCCNC(=N)N)C(=O)N[C@H](CCCCN)C(=O)N[C@H](CCCCN)C(=O)N[C@H](Cc2c[nH]c3ccccc23)C(=O)N[C@H](Cc2ccccc2)C(=O)N[C@H](Cc2c[nH]c3ccccc23)C(N)=O)CCCN(O)C(=O)/C=C(/C)CCOC(=O)[C@H](NC(C)=O)CCCN(O)C(=O)/C=C(/C)CCOC1=O` (stereo in doubt) [[^68Ga]Ga-DAFC-D-PAF26, metal not drawn], in the data set with A. fumigatus [5], the “Uptake into A. fumigatus hyphae normalized to uptake of [68Ga]Ga-TAFC” value was found to be 137%. For the same molecule, in “in vivo”, the tissue uptake worked out at 150 %ID/g. For the same molecule, the tissue uptake at 0.75 h came out at 1.08 ± 0.12 %ID/g in “in vivo” (Biodistribution Blood 45 min); 1.47 ± 0.09 %ID/g in “in vivo” (Biodistribution Femur 45 min); 0.76 ± 0.02 %ID/g in “in vivo” (Biodistribution Heart 45 min); 0.63 ± 0.02 %ID/g in the data set “in vivo” (setting [7]); 150 ± 18 %ID/g in the data set “in vivo” (Biodistribution Kidneys 45 min); 20.8 ± 0.58 %ID/g in the data set “in vivo” (Biodistribution Liver 45 min). In addition, the tissue uptake at 0.75 h turned out to be 2.16 ± 0.19 %ID/g in “in vivo” (Biodistribution Lung 45 min); 0.42 ± 0.18 %ID/g in “in vivo” (Biodistribution Muscle 45 min); 0.41 ± 0.02 %ID/g in the data set “in vivo” (setting [9]); 2.21 ± 0.15 %ID/g in the data set “in vivo” (Biodistribution Spleen 45 min); 0.45 ± 0.17 %ID/g in “in vivo” (Biodistribution Stomach 45 min). Further, the tissue uptake at 1.5 h in “in vivo” (Biodistribution Blood 90 min) was determined as 0.4 ± 0.04 %ID/g; in the data set “in vivo” (Biodistribution Femur 90 min), 1.11 ± 0.16 %ID/g; in “in vivo” (Biodistribution Heart 90 min), 0.6 ± 0.23 %ID/g; in the data set “in vivo” (setting [8]), 0.56 ± 0.03 %ID/g; in the data set “in vivo” (Biodistribution Kidneys 90 min), 158 ± 25.6 %ID/g; in “in vivo” (Biodistribution Liver 90 min), 23 ± 0.89 %ID/g. Moreover, the tissue uptake at 1.5 h in the data set “in vivo” (Biodistribution Lung 90 min) is 1.31 ± 0.23 %ID/g; in “in vivo” (Biodistribution Muscle 90 min) it was 0.28 ± 0.1 %ID/g; in “in vivo” (setting [10]), 0.26 ± 0.03 %ID/g; in the data set “in vivo” (Biodistribution Spleen 90 min) it was 1.97 ± 0.21 %ID/g; in “in vivo” (Biodistribution Stomach 90 min), 0.35 ± 0.03 %ID/g. The molecule also returned a logD in data set [6] of -3.35 ± 0.16.

With `CC(=O)NC1CCCN(O)C(=O)/C=C(/C)CCOC(=O)C(NC(=O)[C@@H](Cc2ccccc2)NC(=O)[C@H](CC(C)C)NC(=O)[C@H](CC(N)=O)NC(C)=O)CCCN(O)C(=O)/C=C(/C)CCOC(=O)C(NC(C)=O)CCCN(O)C(=O)/C=C(/C)CCOC1=O` (stereo in doubt) [[^68Ga]Ga-DAFC-NLF-Ac, metal not drawn], the “Uptake into A. fumigatus hyphae normalized to uptake of [68Ga]Ga-TAFC” value with A. fumigatus [5] was 35%. In “in vivo”, the tissue uptake worked out at 36 %ID/g. Further, the tissue uptake at 0.75 h was determined as 0.46 ± 0.1 %ID/g in the data set “in vivo” (Biodistribution Blood 45 min); 0.16 ± 0.05 %ID/g in “in vivo” (Biodistribution Femur 45 min); 0.22 ± 0.02 %ID/g in “in vivo” (Biodistribution Heart 45 min); 3.09 ± 0.03 %ID/g in “in vivo” (setting [7]); 35.7 ± 1.73 %ID/g in “in vivo” (Biodistribution Kidneys 45 min); 0.85 ± 0.51 %ID/g in the data set “in vivo” (Biodistribution Liver 45 min). In addition, the tissue uptake at 0.75 h in the data set “in vivo” (Biodistribution Lung 45 min) was found to be 0.62 ± 0.01 %ID/g; in the data set “in vivo” (Biodistribution Muscle 45 min), 0.18 ± 0.08 %ID/g; in the data set “in vivo” (setting [9]) it was 0.21 ± 0.06 %ID/g; in the data set “in vivo” (Biodistribution Spleen 45 min), 0.35 ± 0.1 %ID/g; in the data set “in vivo” (Biodistribution Stomach 45 min), 0.69 ± 0.31 %ID/g. Also, the tissue uptake at 1.5 h in the data set “in vivo” (Biodistribution Blood 90 min) worked out at 0.13 ± 0.1 %ID/g; in the data set “in vivo” (Biodistribution Femur 90 min), 0.59 ± 0.5 %ID/g; in “in vivo” (Biodistribution Heart 90 min), 0.12 ± 0.11 %ID/g; in “in vivo” (setting [8]), 4.85 ± 1.78 %ID/g; in the data set “in vivo” (Biodistribution Kidneys 90 min) it was 39.9 ± 2.66 %ID/g; in “in vivo” (Biodistribution Liver 90 min), 0.44 ± 0.05 %ID/g. Moreover, the tissue uptake at 1.5 h amounted to 0.32 ± 0.06 %ID/g in “in vivo” (Biodistribution Lung 90 min); 0.17 ± 0.07 %ID/g in “in vivo” (Biodistribution Muscle 90 min); 0.1 ± 0.06 %ID/g in “in vivo” (setting [10]); 0.24 ± 0.07 %ID/g in the data set “in vivo” (Biodistribution Spleen 90 min); 2.04 ± 0.74 %ID/g in “in vivo” (Biodistribution Stomach 90 min). The molecule further showed a log distribution coefficient (logD) in data set [6] of -0.8 ± 0.08.

Turning to `CC(=O)N[C@@H]1CCCN(O)C(=O)/C=C(/C)CCOC(=O)[C@H](NC(=O)CCC(=O)N[C@@H](CC(N)=O)C(=O)N[C@@H](CC(C)C)C(=O)N[C@H](Cc2ccccc2)C(=O)O)CCCN(O)C(=O)/C=C(/C)CCOC(=O)[C@H](NC(C)=O)CCCN(O)C(=O)/C=C(/C)CCOC1=O` (stereo in doubt) [[^68Ga]Ga-DAFC-succ-NLF, metal not drawn], in the data set on A. fumigatus [5], the “Uptake into A. fumigatus hyphae normalized to uptake of [68Ga]Ga-TAFC” value was found to be 13%. Further, the tissue uptake at 0.75 h in “in vivo” (Biodistribution Blood 45 min) was 0.41 ± 0.14 %ID/g; in the data set “in vivo” (Biodistribution Femur 45 min), 1.76 ± 0.17 %ID/g; in “in vivo” (Biodistribution Heart 45 min), 0.18 ± 0.09 %ID/g; in “in vivo” (setting [7]) it was 0.4 ± 0.1 %ID/g; in “in vivo” (Biodistribution Kidneys 45 min) it was 3.27 ± 0.61 %ID/g; in “in vivo” (Biodistribution Liver 45 min), 0.37 ± 0.07 %ID/g. For the same molecule, the tissue uptake at 0.75 h was 0.61 ± 0.14 %ID/g in “in vivo” (Biodistribution Lung 45 min); 0.08 ± 0.01 %ID/g in “in vivo” (Biodistribution Muscle 45 min); 0.14 ± 0.05 %ID/g in the data set “in vivo” (setting [9]); 0.23 ± 0.04 %ID/g in “in vivo” (Biodistribution Spleen 45 min); 0.19 ± 0.09 %ID/g in the data set “in vivo” (Biodistribution Stomach 45 min). In addition, the tissue uptake at 1.5 h in the data set “in vivo” (Biodistribution Blood 90 min) amounted to 0.05 ± 0.03 %ID/g; in the data set “in vivo” (Biodistribution Femur 90 min), 0.31 ± 0.13 %ID/g; in “in vivo” (Biodistribution Heart 90 min) it was 0.05 ± 0.02 %ID/g; in “in vivo” (setting [8]), 0.36 ± 0.07 %ID/g; in “in vivo” (Biodistribution Kidneys 90 min), 2.93 ± 0.38 %ID/g; in “in vivo” (Biodistribution Liver 90 min) it was 0.3 ± 0.05 %ID/g. For the same molecule, the tissue uptake at 1.5 h in “in vivo” (Biodistribution Lung 90 min) stood at 0.21 ± 0.05 %ID/g; in “in vivo” (Biodistribution Muscle 90 min), 0.11 ± 0.14 %ID/g; in “in vivo” (setting [10]), 0.06 ± 0.02 %ID/g; in the data set “in vivo” (Biodistribution Spleen 90 min) it was 0.19 ± 0.03 %ID/g; in the data set “in vivo” (Biodistribution Stomach 90 min) it was 0.11 ± 0.01 %ID/g. The logD in data set [6] is -2.84 ± 0.17.

The values above are taken from PMC7765500, “Siderophore Scaffold as Carrier for Antifungal Peptides in Therapy of Aspergillus fumigatus Infections” (Journal of Fungi, 2020).
